This passage reports fold binding (co-IP to IP ratio) over WH1 alone results from paper PMC4855144.

This experiment concerns the target GFP-N-WASP WH1-GBD. Briefly: co-IP; GFP microbeads precipitate GFP-N-WASP and fragments ΔWA, WH1, WH1-GBD from HEK293T cell extracts; endogenous CRN7 detected with mAb K37-142-1; ratio of co-IP to IP.

Chain of GFP-N-WASP WH1-GBD (O00401 whole entry, the tested form may be a part): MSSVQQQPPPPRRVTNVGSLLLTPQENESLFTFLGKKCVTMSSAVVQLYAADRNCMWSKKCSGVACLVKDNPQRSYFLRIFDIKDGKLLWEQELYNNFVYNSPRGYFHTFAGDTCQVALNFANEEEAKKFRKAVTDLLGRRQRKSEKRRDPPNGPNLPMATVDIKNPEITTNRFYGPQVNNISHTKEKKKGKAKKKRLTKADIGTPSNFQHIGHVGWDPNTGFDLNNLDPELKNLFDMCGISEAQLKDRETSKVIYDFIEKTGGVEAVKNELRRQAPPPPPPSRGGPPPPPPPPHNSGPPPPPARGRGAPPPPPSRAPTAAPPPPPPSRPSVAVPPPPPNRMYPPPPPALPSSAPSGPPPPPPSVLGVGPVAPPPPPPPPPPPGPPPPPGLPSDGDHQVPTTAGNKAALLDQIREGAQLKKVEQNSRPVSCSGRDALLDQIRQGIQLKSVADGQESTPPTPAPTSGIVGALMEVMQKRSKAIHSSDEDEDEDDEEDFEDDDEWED

B1: endogenous CRN7 (Coronin7) of HEK293T cells (natural protein)
chain: MNRFRVSKFRHTEARPPRRESWISDIRAGTAPSCRNHIKSSCSLIAFNSDRPGVLGIVPLQGQGEDKRRVAHLGCHSDLVTDLDFSPFDDFLLATGSADRTVKLWRLPGPGQALPSAPGVVLGPEDLPVEVLQFHPTSDGILVSAAGTTVKVWDAAKQQPLTELAAHGDLVQSAVWSRDGALVGTACKDKQLRIFDPRTKPRASQSTQAHENSRDSRLAWMGTWEHLVSTGFNQMREREVKLWDTRFFSSALASLTLDTSLGCLVPLLDPDSGLLVLAGKGERQLYCYEVVPQQPALSPVTQCVLESVLRGAALVPRQALAVMSCEVLRVLQLSDTAIVPIGYHVPRKAVEFHEDLFPDTAGCVPATDPHSWWAGDNQQVQKVSLNPACRPHPSFTSCLVPPAEPLPDTAQPAVMETPVGDADASEGFSSPPSSLTSPSTPSSLGPSLSSTSGIGTSPSLRSLQSLLGPSSKFRHAQGTVLHRDSHITNLKGLNLTTPGESDGFCANKLRVAVPLLSSGGQVAVLELRKPGRLPDTALPTLQNGAAVTDLAWDPFDPHRLAVAGEDARIRLWRVPAEGLEEVLTTPETVLTGHTEKICSLRFHPLAANVLASSSYDLTVRIWDLQAGADRLKLQGHQDQIFSLAWSPDGQQLATVCKDGRVRVYRPRSGPEPLQEGPGPKGGRGARIVWVCDGRCLLVSGFDSQSERQLLLYEAEALAGGPLAVLGLDVAPSTLLPSYDPDTGLVLLTGKGDTRVFLYELLPESPFFLECNSFTSPDPHKGLVLLPKTECDVREVELMRCLRLRQSSLEPVAFRLPRVRKEFFQDDVFPDTAVIWEPVLSAEAWLQGANGQPWLLSLQPPDMSPVSQAPREAPARRAPSSAQYLEEKSDQQKKEELLNAMVAKLGNREDPLPQDSFEGVDEDEWD
In the case of B1, the fold binding (co-IP to IP ratio) over WH1 alone turned out to be 4 fold.
